# Reference: ChEMBL document CHEMBL2073821, “Immunohistochemical and functional characterization of pH-dependent intestinal absorption of weak organic acids by the monocarboxylic acid transporter MCT1” (J Pharm Pharmacol, 1999)
# Assays:
# [1] = substrate: O=C(O)c1ccccc1; assay: (§1) TP_TRANSPORTER: uptake in MCT1-expressing MDA-MB231 cells; format: functional, cell-based; settings: MDA-MB-231
# [2] = substrate: C[C@H](O)C(=O)O; assay: as §1; format: functional, cell-based; settings: MDA-MB-231
protein,measurement,setting,value
"Monocarboxylate transporter 1 (Rattus norvegicus), P53987 (protein) MPPAIGGPVGYTPPDGGWGWAVVVGAFISIGFSYAFPKSITVFFKEIEIIFSATTSEVSWISSIMLAVMYAGGPISSILVNKYGSRPVMIAGGCLSGCGLIAASFCNTVQELYFCIGVIGGLGLAFNLNPALTMIGKYFYKKRPLANGLAMAGSPVFLSTLAPLNQAFFGIFGWRGSFLILGGLLLNCCVAGSLMRPIGPQQGKVEKLKSKESLQEAGKSDANTDLIGGSPKGEKLSVFQTVNKFLDLSLFTHRGFLLYLSGNVVMFFGLFTPLVFLSNYGKSKHFSSEKSAFLLSILAFVDMVARPSMGLAANTRWIRPRVQYFFAASVVANGVCHLLAPLSTTYVGFCIYAGVFGFAFGWLSSVLFETLMDLVGPQRFSSAVGLVTIVECCPVLLGPPLLGRLNDMYGDYKYTYWACGVILIIAGLYLFIGMGINYRLVAKEQKAEEKKRDGKEDETSTDVDEKPKKTMKETQSPAPLQNSSGDPAEEESPV",Km,[1],3050 µM
same,Km,[2],2280 µM
